Measured values taken from publication PMC11677724, “Preclinical Study of a Dual-Target Molecular Probe Labeled with ^68Ga Targeting SSTR2 and FAP” (Pharmaceuticals, 2024).

Tests used:
[1] = In vitro stability in physiological saline/PBS or FBS, radio-HPLC; type: in vitro ADME; details: 1.85 MBq in 5 µL, 37 °C, 2 h
Description: A measure of 5 µL of [^68Ga]Ga-TATE-46 (1.85 MBq) was added to 300 µL of PBS or FBS and incubated at 37 °C for 2 h. Subsequently, the radiochemical purity was determined using HPLC.

[2] = Pharmacokinetics, blood time-activity curves, two-compartment model; type: in vivo, BALB/c mice; details: female healthy BALB/c mice, n = 3 per group, 0.37 MBq tail vein, blood 2-120 min, γ-counter, two-compartment model (WinNonlin)
Description: Nine female healthy BALB/c mice were randomly divided into three groups (with three mice in each group) using a random number table. Each group was administered 100 µL of [^68Ga]Ga-TATE-46, [^68Ga]Ga-DOTA-TATE, or [^68Ga]Ga-FAPI-46 (0.37 MBq) via tail vein injection. Blood samples (5 µL × 3) were collected at 2, 5, 10, 15, 30, 60, 90, and 120 min post-injection via tail vein. The radioactivity in the blood was measured with a γ-counter and converted to blood radioactivity concentration (kBq/mL). The pharmacokinetic data (time–blood radioactivity concentration) were analyzed by using the two-compartment model in the pharmacokinetic software WinNonlin (Certara, Louis, MO, USA, 2018-06) to determine the distribution and clearance half-life parameters of the radiopharmaceuticals in the mice.

[3] = system: NCI-H727 tumor-bearing mice; experiment: Ex vivo biodistribution in NCI-H727 tumor-bearing mice; details: biodistribution in NCI-H727 tumor-bearing mice
Description: (§1) Female BALB/c nude mice were obtained from Charles River Laboratories (Beijing, China). […] Approximately 5 × 10^6 cells were implanted into the right shoulder of each mouse to establish an NCI-H727 tumor model and Mc38 tumor model. Once the tumor volume reached 200–300 mm^3, the mice were used for imaging or biodistribution studies. All animal experiments were carried out in accordance with the National Institutes of Health Guidelines for the Care and Use of Laboratory Animals and were approved by the Animal Protection and Utilization Committee of the General Hospital of the PLA (Approval No.: S2023-209-1).
The NCI-H727 tumor-bearing mice were randomly assigned to four groups (with three mice in each group) and were injected with [^68Ga]Ga-TATE-46 (1.48 MBq, 100 µL). The mice were put to death at 0.5, 1, 2, and 4 h post-injection (p.i.). The tissues and organs of concern were gathered, weighed, and measured for radioactivity using a γ-counter. Additionally, [^68Ga]Ga-DOTA-TATE and [^68Ga]Ga-FAPI-46 were used as control groups in the biodistribution study of the NCI-H727 tumor model at 1 h p.i. After performing time decay correction, the radiotracer uptake in each tissue and organ was calculated as %ID/g.

[4] = system: NCI-H727 tumor-bearing mice; experiment: Micro PET imaging with ROI quantification and blocking, NCI-H727 tumor-bearing mice; type: in vivo, BALB/c nude mice
Description: as §1
Each set of NCI-H727 tumor xenograft models (n = 3) was administered with [^68Ga]Ga-TATE-46, [^68Ga]Ga-DOTA-TATE, or [^68Ga]Ga-FAPI-46 (5.55–7.4 MBq, 150 µL/mouse) through the tail vein. Static PET scans were performed at 30 min, 1 h, 2 h, and 4 h after injection for 10 min each. In blocking studies, unlabeled precursors (FAPI-46, DOTA-TATE, FAPI-46 + DOTA-TATE, 10 mg/kg) were co-injected with [^68Ga]Ga-TATE-46. After image acquisition, the images were reconstructed using the three-dimensional ordered subset expectation maximization (3D-OSEM) algorithm and analyzed on the Recon/Avator-s-10 workstation. The percentage of injected dose per gram of tissue (%ID/g) was determined by delineating regions of interest.

[5] = system: NCI-H727 cells (SSTR2/FAP, positive); experiment: Cell uptake and blocking in NCI-H727 cells; type: cell-based; details: 1 h
Description: The NCI-H727 and Mc38 cell lines were supplied by the Stem Cell Bank of the Chinese Academy of Sciences and were cultivated in Roswell Park Memorial Institute (RPMI-1640) medium with 10% (v/v) fetal bovine serum (FBS) at 37 °C with 5% CO2. All cells were cultured until they reached 80–90% confluence before undergoing trypsinization.
NCI-H727 cells were placed in a 24-well plate and cultivated for 24 h. The original medium was removed, and fresh RPMI-1640 was added. Then, 100 µL of [^68Ga]Ga-TATE-46, [^68Ga]Ga-DOTA-TATE, or [^68Ga]Ga-FAPI-46 (1.48×10^4 Bq) was added to each well, and the cells were incubated for 30 min, 1 h, 2 h, and 4 h (with three replicates for each time point). The culture medium was taken away, and the cells were washed twice with cold PBS (pH 7.4). Then, the cells were lysed using 0.5 mL of 1 M NaOH.
In blocking experiments, an excessive amount of unlabeled FAPI-46, DOTA-TATE, or FAPI-46 + DOTA-TATE (10 µg/well) was added as an inhibitor along with [^68Ga]Ga-TATE-46 to the cells. After 1 h, the cells were processed using the same method. Finally, the cell lysates were gathered, and the radioactivity was measured using a γ-counter. Mc38 cells were used as a negative control, with only [^68Ga]Ga-TATE-46 (1.48 × 10^4 Bq/well, 100 µL) added, and the rest of the procedure was followed as described above.

In the case of `C[C@@H](O)[C@H](NC(=O)[C@@H]1CSSC[C@H](NC(=O)[C@@H](Cc2ccccc2)NC(=O)CCCCCNC(=O)CCCCCNC(=O)[C@H](Cc2ccccc2)NC(=O)C(CCC(=O)N[C@@H](Cc2ccccc2)C(=O)NCCCCCC(=O)NCCCCCC(=O)N2CCN(CCCN(C)c3ccc4nccc(C(=O)NCC(=O)N5CC(F)(F)C[C@H]5C#N)c4c3)CC2)NC(=O)CN2CCN(CC(=O)O)CCN(CC(=O)O)CCN(CC(=O)O)CC2)C(=O)N[C@@H](Cc2ccc(O)cc2)C(=O)N[C@H](Cc2c[nH]c3ccccc23)C(=O)N[C@@H](CCCCN)C(=O)N[C@@H]([C@@H](C)O)C(=O)N1)C(=O)O` (stereo partly drawn) [[^68Ga]Ga-TATE-46, metal not drawn], the “In vitro stability in FBS (HPLC chromatogram)” value ([1]; 300 µL FBS) is reported as “only one peak”, the “In vitro stability in physiological saline (HPLC chromatogram)” value ([1]; physiological saline (method: 300 µL PBS)) is reported as “only one peak” and the distribution half-life [2] is reported as 1.79 min. For the same compound, the elimination half-life [2] was 37.75 min, the tumor/muscle ratio [3] was 3–4 and the “tumor uptake in NCI-H727 tumors (PET ROI) compared with [68Ga]Ga-FAPI-46 and [68Ga]Ga-DOTA-TATE” value ([4]; 5.55–7.4 MBq, 30 min-4 h p.i., n = 3, p < 0.001) was “significantly higher”. For the same compound, the “tumor uptake (PET) on co-injection with blocking agents DOTA-TATE, FAPI-46, or DOTA-TATE + FAPI-46” value ([4]; blockers 10 μg/g each, NCI-H727 tumors, 1 h p.i., all p < 0.001) was “significantly reduced”, the “cellular uptake in NCI-H727 cells compared with [68Ga]Ga-DOTA-TATE and [68Ga]Ga-FAPI-46” value ([5]; 1.48×10^4 Bq/well, 30 min, 2 h, 4 h, γ-counter, n = 3, all p < 0.001) was “significantly higher” and the “cellular uptake in NCI-H727 cells on co-incubation with unlabeled TATE, FAPI-46, or TATE + FAPI-46” value ([5]; blocker at 1000 times the molar amount (10 µg/well), all p < 0.01) was “significant reduction”.
